± gives the standard deviation of the averaged measurements.
Experiment: total protein half-life in vivo (active degradation + dilution); higher = more stable protein
[1] = E. coli NCM3722 delta-clpP delta-lon delta-hslV, growth: N-lim chemostat, doubling time 6 h
[2] = E. coli NCM3722 delta-clpP, growth: N-lim chemostat, doubling time 6 h
[3] = E. coli NCM3722 delta-hslV, growth: N-lim chemostat, doubling time 6 h
[4] = E. coli NCM3722 delta-lon, growth: N-lim chemostat, doubling time 6 h
[5] = E. coli NCM3722 delta-smpB, growth: N-lim chemostat, doubling time 6 h
[6] = wild type E. coli NCM3722, growth: C-lim chemostat, doubling time 3 h
[7] = wild type E. coli NCM3722, growth: C-lim chemostat, doubling time 6 h
[8] = wild type E. coli NCM3722, growth: C-lim chemostat, doubling time 12 h
[9] = wild type E. coli NCM3722, growth: N-lim chemostat, doubling time 6 h
[10] = wild type E. coli NCM3722, growth: N-lim chemostat, doubling time 12 h
[11] = wild type E. coli NCM3722, growth: P-lim chemostat, doubling time 6 h
[12] = wild type E. coli NCM3722, growth: P-lim chemostat, doubling time 12 h

MAQFVYTMHRVGKVVPPKRHILKNISLSFFPGAKIGVLGLNGAGKSTLLRIMAGIDKDIEGEARPQPDIKIGYLPQEPQLNPEHTVRESIEEAVSEVVNALKRLDEVYALYADPDADFDKLAAEQGRLEEIIQAHDGHNLNVQLERAADALRLPDWDAKIANLSGGERRRVALCRLLLEKPDMLLLDEPTNHLDAESVAWLERFLHDFEGTVVAITHDRYFLDNVAGWILELDRGEGIPWEGNYSSWLEQKDQRLAQEASQEAARRKSIEKELEWVRQGTKGRQSKGKARLARFEELNSTEYQKRNETNELFIPPGPRLGDKVLEVSNLRKSYGDRLLIDDLSFSIPKGAIVGIIGPNGAGKSTLFRMISGQEQPDSGTITLGETVKLASVDQFRDSMDNSKTVWEEVSGGLDIMKIGNTEMPSRAYVGRFNFKGVDQGKRVGELSGGERGRLHLAKLLQVGGNMLLLDEPTNDLDIETLRALENALLEFPGCAMVISHDRWFLDRIATHILDYQDEGKVEFFEGNFTEYEEYKKRTLGADALEPKRIKYKRIAK [P0A9W3]
total protein half-life in vivo [1]: 4.99 ± 0.079 h
total protein half-life in vivo [2]: 5.16 ± 1.3 h
total protein half-life in vivo [3]: 4.696 ± 0.0076 h
total protein half-life in vivo [4]: 4.99 ± 0.28 h
total protein half-life in vivo [5]: 4.57 ± 0.13 h
total protein half-life in vivo [6]: 3.142 ± 0.022 h
total protein half-life in vivo [7]: 5.61 ± 0.25 h
total protein half-life in vivo [8]: 10.3 ± 0.59 h
total protein half-life in vivo [9]: 4.514 ± 0.025 h
total protein half-life in vivo [10]: 7.31 ± 0.33 h
total protein half-life in vivo [11]: 5.748 ± 0.023 h
total protein half-life in vivo [12]: 11.6 ± 0.28 h

MAQGTLYIVSAPSGAGKSSLIQALLKTQPLYDTQVSVSHTTRQPRPGEVHGEHYFFVNHDEFKEMISRDAFLEHAEVFGNYYGTSREAIEQVLATGVDVFLDIDWQGAQQIRQKMPHARSIFILPPSKIELDRRLRGRGQDSEEVIAKRMAQAVAEMSHYAEYDYLIVNDDFDTALTDLKTIIRAERLRMSRQKQRHDALISKLLAD
total protein half-life in vivo [1]: 4.92 ± 0.11 h
total protein half-life in vivo [2]: 4.94 ± 0.094 h
total protein half-life in vivo [3]: 4.492 ± 0.0085 h
total protein half-life in vivo [4]: 4.85 ± 0.71 h
total protein half-life in vivo [5]: 4.493 ± 0.03 h
total protein half-life in vivo [6]: 2.78 ± 0.075 h
total protein half-life in vivo [7]: 6.12 ± 1.5 h
total protein half-life in vivo [8]: 8.87 ± 3.6 h
total protein half-life in vivo [9]: 5.11 ± 0.12 h
total protein half-life in vivo [10]: 8.324 ± 0.018 h
total protein half-life in vivo [11]: 5.66 ± 0.11 h
total protein half-life in vivo [12]: 11.8 ± 0.35 h

MAQHTVYFPDAFLTQMREAMPSTLSFDDFLAACQRPLRRSIRVNTLKISVADFLQLTAPYGWTLTPIPWCEEGFWIERDNEDALPLGSTAEHLSGLFYIQEASSMLPVAALFADGNAPQRVMDVAAAPGSKTTQISARMNNEGAILANEFSASRVKVLHANISRCGISNVALTHFDGRVFGAAVPEMFDAILLDAPCSGEGVVRKDPDALKNWSPESNQEIAATQRELIDSAFHALRPGGTLVYSTCTLNQEENEAVCLWLKETYPDAVEFLPLGDLFPGANKALTEEGFLHVFPQIYDCEGFFVARLRKTQAIPALPAPKYKVGNFPFSPVKDREAGQIRQAATGVGLNWDENLRLWQRDKELWLFPVGIEALIGKVRFSRLGIKLAETHNKGYRWQHEAVIALASPDNMNAFELTPQEAEEWYRGRDVYPQAAPVADDVLVTFQHQPIGLAKRIGSRLKNSYPRELVRDGKLFTGNA
total protein half-life in vivo [1]: 4.91 ± 0.059 h
total protein half-life in vivo [2]: 4.53 ± 0.36 h
total protein half-life in vivo [3]: 4.4 ± 0.12 h
total protein half-life in vivo [4]: 5.21 ± 0.62 h
total protein half-life in vivo [5]: 4.38 ± 0.21 h
total protein half-life in vivo [6]: 2.99 ± 0.3 h
total protein half-life in vivo [7]: 5.79 ± 1.4 h
total protein half-life in vivo [8]: 9.34 ± 2.6 h
total protein half-life in vivo [9]: 4.63 ± 0.14 h
total protein half-life in vivo [10]: 8.3 ± 0.63 h
total protein half-life in vivo [11]: 4.78 ± 1.1 h
total protein half-life in vivo [12]: 9.91 ± 0.92 h

MAQRDYVRRSQPAPSRRKKSTSRKKQRNLPAVSPAMVAIAAAVLVTFIGGLYFITHHKKEESETLQSQKVTGNGLPPKPEERWRYIKELESRQPGVRAPTEPSAGGEVKTPEQLTPEQRQLLEQMQADMRQQPTQLVEVPWNEQTPEQRQQTLQRQRQAQQLAEQQRLAQQSRTTEQSWQQQTRTSQAAPVQAQPRQSKPASSQQPYQDLLQTPAHTTAQSKPQQAAPVARAADAPKPTAEKKDERRWMVQCGSFRGAEQAETVRAQLAFEGFDSKITTNNGWNRVVIGPVKGKENADSTLNRLKMAGHTNCIRLAAGG
total protein half-life in vivo [1]: 4.824 ± 0.04 h
total protein half-life in vivo [2]: 6.54 ± 1.9 h
total protein half-life in vivo [3]: 5.87 ± 0.74 h
total protein half-life in vivo [4]: 5.94 ± 0.43 h
total protein half-life in vivo [5]: 4.76 ± 0.2 h
total protein half-life in vivo [6]: 3 ± 0.038 h
total protein half-life in vivo [7]: 5.351 ± 0.053 h
total protein half-life in vivo [8]: 9.17 ± 0.79 h
total protein half-life in vivo [9]: 5.27 ± 0.25 h
total protein half-life in vivo [10]: 10.2 ± 0.24 h
total protein half-life in vivo [11]: 4.421 ± 0.02 h
total protein half-life in vivo [12]: 9.11 ± 0.63 h

MAQRIFTLILLLCSTSVFAGLFDAPGRSQFVPADQAFAFDFQQNQHDLNLTWQIKDGYYLYRKQIRITPEHAKIADVQLPQGVWHEDEFYGKSEIYRDRLTLPVTINQASAGATLTVTYQGCADAGFCYPPETKTVPLSEVVANNAAPQPVSVPQQEQPTAQLPFSALWALLIGIGIAFTPCVLPMYPLISGIVLGGKQRLSTARALLLTFIYVQGMALTYTALGLVVAAAGLQFQAALQHPYVLIGLAIVFTLLAMSMFGLFTLQLPSSLQTRLTLMSNRQQGGSPGGVFVMGAIAGLICSPCTTAPLSAILLYIAQSGNMWLGGGTLYLYALGMGLPLMLITVFGNRLLPKSGPWMEQVKTAFGFVILALPVFLLERVIGDVWGLRLWSALGVAFFGWAFITSLQAKRGWMRIVQIILLAAALVSVRPLQDWAFGATHTAQTQTHLNFTQIKTVDELNQALVEAKGKPVMLDLYADWCVACKEFEKYTFSDPQVQKALADTVLLQANVTANDAQDVALLKHLNVLGLPTILFFDGQGQEHPQARVTGFMDAETFSAHLRDRQP
total protein half-life in vivo [1]: 6.33 ± 0.17 h
total protein half-life in vivo [2]: 6.16 ± 0.66 h
total protein half-life in vivo [3]: 5.61 ± 0.96 h
total protein half-life in vivo [4]: 6.37 ± 0.69 h
total protein half-life in vivo [5]: 5.76 ± 0.13 h
total protein half-life in vivo [7]: 5.22 ± 0.15 h
total protein half-life in vivo [8]: 13.2 ± 1 h
total protein half-life in vivo [9]: 6.08 ± 0.72 h
total protein half-life in vivo [10]: 11.9 ± 0.37 h
total protein half-life in vivo [11]: 5.82 ± 0.19 h
total protein half-life in vivo [12]: 12.35 ± 0.1 h

MAQRVQLTATVSENQLGQRLDQALAEMFPDYSRSRIKEWILDQRVLVNGKVCDKPKEKVLGGEQVAINAEIEEEARFEPQDIPLDIVYEDEDIIIINKPRDLVVHPGAGNPDGTVLNALLHYYPPIADVPRAGIVHRLDKDTTGLMVVAKTVPAQTRLVESLQRREITREYEAVAIGHMTAGGTVDEPISRHPTKRTHMAVHPMGKPAVTHYRIMEHFRVHTRLRLRLETGRTHQIRVHMAHITHPLVGDPVYGGRPRPPKGASEAFISTLRKFDRQALHATMLRLYHPISGIEMEWHAPIPQDMVELIEVMRADFEEHKDEVDWL
total protein half-life in vivo [1]: 5.82 ± 0.6 h
total protein half-life in vivo [2]: 5.7 ± 0.94 h
total protein half-life in vivo [3]: 5.65 ± 0.66 h
total protein half-life in vivo [4]: 5.51 ± 0.46 h
total protein half-life in vivo [5]: 4.66 ± 0.21 h
total protein half-life in vivo [6]: 3.66 ± 0.34 h
total protein half-life in vivo [7]: 5.83 ± 0.07 h
total protein half-life in vivo [8]: 9.95 ± 1.4 h
total protein half-life in vivo [9]: 5.63 ± 0.2 h
total protein half-life in vivo [10]: 8.47 ± 0.64 h
total protein half-life in vivo [11]: 5.72 ± 0.12 h
total protein half-life in vivo [12]: 11.2 ± 0.25 h

MAQVINTNSLSLITQNNINKNQSALSSSIERLSSGLRINSAKDDAAGQAIANRFTSNIKGLTQAARNANDGISVAQTTEGALSEINNNLQRVRELTVQATTGTNSESDLSSIQDEIKSRLDEIDRVSGQTQFNGVNVLAKNGSMKIQVGANDNQTITIDLKQIDAKTLGLDGFSVKNNDTVTTSAPVTAFGATTTNNIKLTGITLSTEAATDTGGTNPASIEGVYTDNGNDYYAKITGGDNDGKYYAVTVANDGTVTMATGATANATVTDANTTKATTITSGGTPVQIDNTAGSATANLGAVSLVKLQDSKGNDTDTYALKDTNGNLYAADVNETTGAVSVKTITYTDSSGAASSPTAVKLGGDDGKTEVVDIDGKTYDSADLNGGNLQTGLTAGGEALTAVANGKTTDPLKALDDAIASVDKFRSSLGAVQNRLDSAVTNLNNTTTNLSEAQSRIQDADYATEVSNMSKAQIIQQAGNSVLAKANQVPQQVLSLLQG
total protein half-life in vivo [1]: > 8 h
total protein half-life in vivo [3]: > 8 h
total protein half-life in vivo [4]: > 8 h
total protein half-life in vivo [5]: > 8 h
total protein half-life in vivo [6]: 0.717 ± 0.2 h
total protein half-life in vivo [7]: 0.724 ± 0.37 h
total protein half-life in vivo [8]: 0.956 ± 0.59 h
total protein half-life in vivo [9]: 6.3 ± 0.12 h
total protein half-life in vivo [11]: > 8 h
total protein half-life in vivo [12]: > 16 h

Source: the supplement of paper PMC11246515
